Assay results taken from US12344637B2, “Virus-inspired compositions and methods of redirecting preexisting immune responses using the same for treatment of cancer” (priority 2020, dated 2025).

Key:
[1] = tested on: MC38 cells; test: OVA peptide loading in the presence of furin inhibitor; type: cell-based, murine; details: IRC 2.5 μg/mL
Protocol: (Millipore-Sigma, St. Louis, MO). This furin inhibitor binds irreversibly to the catalytic site of furin, blocking all furin protease activity.
Briefly, 2×10^5 MC38 cells (murine colon adenocarcinoma, #ENH204-FP, Kerafast, Inc., Boston MA) were seeded in a FACs tube and then incubated with either 0.5 μM, […], or 50 μM furin inhibitor dissolved in DMSO at total final sample volume of 200 μL. Control samples containing no inhibitor were prepared the same way with the same volume equivalent of DMSO. The samples were incubated for fifteen minutes in a tissue culture incubator at 37° C., 5% CO2. Then, 2.5 μg/mL of OVA-conjugated MPV.10.34.d IRC was added to all samples and the samples were incubated in a tissue culture incubator at 37° C., 5% CO2. Samples were then washed twice with 2 to 3 mL FACS buffer and then stained with PE-conjugated-mouse anti-mouse MHC I bounded with OVA (SIINFEKL, SEQ ID NO:95) monoclonal antibody (Biolegend, Cat #141604, San Diego, CA) for 30 minutes at 4° C. Following this, samples were washed once with 3 mL FACS buffer then the cells were resuspended in 250 μL of FACS buffer before being analyzed by a CytoFLEX flow cytometer. (Beckman Coulter Life Sciences, Brea, CA, US).

[2] = HPV16 L1 deletion mutants; cited from earlier work
[3] = ELISA of anti-MPV.10.34.d IRC sera; type: binding, mice; details: serum from 1:100, two-fold dilutions
Protocol: (§1) Antibodies against wild type MPV were generated as follows: New Zealand white rabbits (n=3) were administered three intra-muscular vaccinations of 50 μg of wild type mouse papillomavirus particles per dose. Rabbits were vaccinated at months 0, 1, and 2. After two weeks post final vaccination, rabbits were bled to obtain the anti-MPV sera. Antibodies against MPV.10.34.d IRC were obtained as follows: naïve 6 to 8 week old C57/BL6 mice (n=10) were injected systemically with two doses of 150 μg of E7-conjugated MPV.10.34.d over a period of 48 hours. After 48 hours, the mice were bled to obtain the anti-MPV.10.34.d IRC sera.
(§2) Specificity of anti-MPV.10.34.d IRC sera and anti-MPV sera to both MPV.10.34.d capsid backbone and MPV.10.34.d IRC was examined by ELISA. The assays were performed as described in Example 5 with the following differences: serum samples were tested at a 1:100 dilution factor and two-fold serial dilutions. Goat anti-mouse IgG-HRP secondary antibody was used in the ELISA (1:7000). Binding of anti-MPV.10.34.d IRC sera (FIG. 31) and anti-MPV scrum (data not shown) to both MPV.10.34.d capsid backbone (FIG. 31A) and MPV.10.34.d IRC (FIG. 31B) was observed.

[4] = ELISA of anti-MPV sera; type: binding, rabbits; details: data not shown
Protocol: as §1, §2

[5] = tested on: MPV.A4 monoclonal antibody; test: ELISA with MPV.A4 conformational monoclonal antibody; type: binding
Protocol: The MPV.A4 antibody is a conformational antibody that specifically binds to MPV L1 in the form of T=1 or T=7 capsid backbone structure. This antibody will not bind to denatured or monomeric MPV L1. (Hafenstein et al., 2020, “Atomic Resolution CRYOEM structure of Mouse Papillomavirus,” International Papillomavirus Conference, Jul. 20-24, 2020). To determine whether MPV.10.34.d undergoing the steps in Example 1 or Example 4 yields a T=1 capsid backbone, ELISA was performed on these samples with the MPV.A4 monoclonal antibody.
Samples from Example 1 and Example 4 of equal concentrations (starting concentration of 1000 ng/well) were subjected to ELISA. To ensure that both soluble and refolded MPV.10.34.d were equally bound to the ELISA plate (Nunc Maxisorp, ThermoFisher Scientific, Waltham, MA, US), both samples were first buffer exchanged into either 50 mM NaPO4, 450 mM NaCl at pH 6 or pH 7. […] Based on this, a total of four sample conditions were two-fold serially diluted and subjected to ELISA with the MPV.A4 monoclonal antibody.
Briefly, eight different amounts of protein (7.8 ng to 1 μg) for each sample under both pH conditions (into either 50 mM NaPO4, 450 mM NaCl at pH 6 or pH 7) were first added to the ELISA plate and the plate was stored at 4° C. […] The absorbance of the sample plates were read at 450 nm and 620 nm with a plate reader (BioTek, Winooski, VT, US).

[6] = tested on: HCT116; test: In vitro cytotoxicity assay with human CMV T cells, HCT116; type: cell-based; details: HCT116, 2.5 μg/mL, E:T 10:1, 24 hrs
Protocol: (§3) In these experiments, CD8+ T cell responses to CMV peptides were tested in three different human tumor cell lines, including HCT116, OVCAR3, and MCF7. All three of these human tumor cell lines are HLA-A*0201 positive.
(§4) In Vitro Cytotoxicity Assays. […], human colon cancer cells, MCF7, human breast cancer cells, and OVCAR3, human ovarian cancer cells (all from ATCC, Manassas, VA, US) were seeded overnight at 0.01 to 0.2×10^6 per well per 100 μL per 96 well plate. The next day (about 20 to 22 hrs later), each cell line was incubated for one hour at 37° C. under the following conditions: (1) CMV peptide at a final concentration of 1 μg/mL (positive control), (2) MPV.10.34.d at a final concentration of 2.5 μg/mL (negative control), (3) CMV-conjugated MPV.10.34.d IRC at a final concentration of 2.5 μg/mL, (4) CMV-conjugated HPV16 IRC at a final concentration of 2.5 μg/mL, and (5) no antigen (negative control). After 1 hour, the cells were washed vigorously with 200 μL of media for three times to remove non-specific binding. […] Cell viability was measured after co-culturing. Cell viability was measured with CELLTITER-GLO® (Promega, Madison, WI, US). […] The amount of ATP generated from tumor cells was quantified according to manufacturer protocols.

[7] = tested on: pgsA-745 cells; test: In vitro cell binding assay (flow cytometry), HSPG knock-out cells; type: cell-based, Chinese hamster; details: pgsA-745, 1 h 37° C.
Protocol: (§5) To assess whether IRC bind to tumor cells, an in vitro cell binding assay was conducted. Specifically, both MPV.10.34.d capsid backbones (unconjugated) as well as different conjugated IRC (human CMV pp65, murine E7, and murine OVA peptide) were examined.
(§6) Briefly, 2×10^5 MC38 cells (murine colon adenocarcinoma, #ENH204-FP Kerafast, Inc., Boston MA) or pgsA-745 cells (Chinese hamster ovary cell mutant deficient in xylosyltransferase (UDP-D-xylose:serine-1,3-D-xylosyltransferase, ATCC CRL-2242) in which heparin sulfate proteoglycan (HSPG) expression is knocked out, were seeded overnight. The next day, the cells were treated with human CMV pp65, murine HPV16 E7, and murine OVA peptide, as well as the MPV.10.34.d capsid backbone for one hour at 37° C. Cells were then washed twice with 2 to 3 mL of a fluorescence activated cell sorting (FACS) buffer (1% bovine serum albumin in PBS) and then stained with 1 mL of rabbit anti-musPsV serum antibodies for 30 minutes at 4° C. Following this, samples were washed once with 3 mL FACS buffer and stained with 0.5 mL of donkey anti-rabbit IgG-PE antibody (Biolegend, San Diego, CA) for 30 min at 4° C. in the dark. Finally, samples were washed once more with 3 mL FACS buffer and then resuspended in […] of FACS buffer before being analyzed by a CytoFLEX flow cytometer (Beckman Coulter Life Sciences, Brea, CA, US).

[8] = tested on: MC38 cells; test: In vitro cell binding assay (flow cytometry), MC38; type: cell-based, murine; details: MC38, 1 h 37° C.
Protocol: as §5, §6

[9] = tested on: MCF7; test: In vitro cytotoxicity assay with human CMV T cells, MCF7; type: cell-based; details: MCF7, 2.5 μg/mL, E:T 10:1, 24 hrs
Protocol: as §3, §4

[10] = Transmission electron microscopy (TEM) size and structure; type: physicochemical; details: purified refolded capsid backbone
Protocol: TEM analysis was also employed to obtain further visual confirmation of the structure and size of the refolded proteins. Samples (10 μL) were adsorbed to glow discharged (EMS GloQube) carbon coated 400 mesh copper grids (EMS), by floatation for 2 min. Grids were quickly blotted and then rinsed in 3 drops (1 min each) of TBS. Grids were negatively stained in 2 consecutive drops of 1% uranyl acetate with tylose (1% UAT, double filtered, 0.22 μm filter), blotted then quickly aspirated to obtain a thin layer of stain covering the sample. Grids were imaged on a Phillips CM-120 TEM operating at 80 kV with an AMT XR80 CCD (8 megapixel).

[11] = tested on: OVCAR3; test: In vitro cytotoxicity assay with human CMV T cells, OVCAR3; type: cell-based; details: OVCAR3, 2.5 μg/mL, E:T 10:1, 24 hrs
Protocol: as §3, §4

decanoyl-RVKR-CMKa [furin inhibitor, reference compound]
OVA peptide loading ([1]; furin inhibitor 0.5 μM): prevents OVA-conjugated MPV.10.34.d IRCs from loading OVA epitopes | OVA peptide loading ([1]; furin inhibitor 5 μM): prevents OVA-conjugated MPV.10.34.d IRCs from loading OVA epitopes | OVA peptide loading ([1]; furin inhibitor 50 μM): prevents OVA-conjugated MPV.10.34.d IRCs from loading OVA epitopes

ΔN = 0: HPV16 L1 protein without N-terminal deletion (Chen et al., 2000)
Apparent Diameter of Assembled Particle (Å) [2]: 600 Å

B1: MPV.10.34.d capsid backbone (protein)
chain: MLYLPPTTPVAKVQSTDEYVYPTSLFCHAHTDRLLTVGHPFFSVIDNDKVTVPKVSGNQYRVFRLKFPDPNKFALPQKDFYDPEKERLVWRLRGLEIGRGGPLGIGTTGHPLFNKLGDTENPNKYQQGSKDNRQNTSMDPKQTQLFIVGCEPPTGEHWDVAKPCGALEKGDCPPIQLVNSVIEDGDMCDIGFGNMNFKELQQDRSGVPLDIVSTRCKWPDFLKMTNEAYGDKMFFFGRREQVYARHFFTRNGSVGEPIPNSVSPSDFYYAPDSTQDQKTLAPSVYFGTPSGSLVSSDGQLFNRPFWLQRAQGNNNGVCWHNELFVTVVDNTRNTNFTISQQTNTPNPDTYDSTNFKNYLRHVEQFELSLIAQLCKVPLDPGVLAHINTMNPTILENWNLGFVPPKEREDPYKGLIFWEVDLTERFSQDLDQFALGRKFLYQ
binding of anti-MPV.10.34.d IRC sera (ELISA) [3]: Binding | binding of anti-MPV.10.34.d IRC sera (ELISA) ([3]; listed as MPV.10.34.d capsid backbones): specifically recognize and bind | binding of anti-MPV serum (ELISA) [4]: Binding | recognition by MPV.A4 conformational monoclonal antibody ([5]; refolded from IBs (Example 1)): recognized | recognition by MPV.A4 conformational monoclonal antibody ([5]; soluble (Example 4), pH 6 or pH 7): recognized | redirection of CMV pp65-specific CD8+ T-cells to kill tumor cells [6]: no background tumor killing | binding to cells lacking HSPG expression [7]: no binding | binding to tumor cells (peak shift) [8]: exhibited specificity for tumor cells | redirection of CMV pp65-specific CD8+ T-cells to kill tumor cells [9]: no background tumor killing | diameter (TEM) [10]: ~30 nm | redirection of CMV pp65-specific CD8+ T-cells to kill tumor cells [11]: no background tumor killing
